According to US20250270341A1 (Alector, published 2025):
Positions count from the first letter of the chain named. Blank lines part the entries; values can stand above or below the binder they belong to.

Assays:
[1] = target: T1, Full length mouse CD98hc on CHO cells (mouse, UniProt P10852 1-526); experiment: FACS, hybridoma supernatant
T1 construct: CHO cells stably overexpressing it; also called CHO-mouse CD98hc; CHO-mCD98hc
T1 sequence: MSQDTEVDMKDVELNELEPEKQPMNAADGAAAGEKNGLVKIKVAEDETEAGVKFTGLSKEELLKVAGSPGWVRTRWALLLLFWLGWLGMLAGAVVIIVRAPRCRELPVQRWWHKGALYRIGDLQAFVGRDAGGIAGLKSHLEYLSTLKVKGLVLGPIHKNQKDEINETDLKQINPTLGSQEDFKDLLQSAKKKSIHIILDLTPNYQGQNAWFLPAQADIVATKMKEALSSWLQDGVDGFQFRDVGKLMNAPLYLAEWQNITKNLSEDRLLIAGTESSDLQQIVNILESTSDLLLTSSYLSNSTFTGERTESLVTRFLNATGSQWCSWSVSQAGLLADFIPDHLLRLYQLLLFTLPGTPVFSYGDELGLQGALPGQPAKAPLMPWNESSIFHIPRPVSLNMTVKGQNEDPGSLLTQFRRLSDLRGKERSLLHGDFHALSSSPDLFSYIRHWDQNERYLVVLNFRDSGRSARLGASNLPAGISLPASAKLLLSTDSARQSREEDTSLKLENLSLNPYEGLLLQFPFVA
Description: The IgG positive hybridoma supernatants (898 in total) were initially screened for their ability to differentially bind CHO cells overexpressing human or mouse CD98hc cells compared to CHO parental cells by FACS. Overexpressing cells were harvested, washed, and labeled with various concentrations and combinations of CellTrace cell proliferation dyes CFSE and Violet (ThermoFisher, Cat #C34554 and Cat #34557, respectively) to create uniquely barcoded cell populations. Barcoded cells (5×10⁴ of each cell population) were aliquoted into 96-well U-bottom plates and incubated with 50 μl of hybridoma cell culture supernatant or 1 μg/ml of commercially available purified mouse anti-human CD98hc monoclonal antibody (Sigma Aldrich, Cat #SAB 4700503) and rat anti-mouse CD98hc antibody (Bio-Rad Laboratories, Hercules, CA, Cat #MCA2684) on ice for 30 minutes. […] Following this secondary antibody incubation, the cells were again washed twice with ice-cold FACS buffer and resuspended in a final volume of 50 μl of FACS buffer containing 0.25 μl/well propidium iodide (BD Biosciences, Cat #556463). Binding intensity on cells was analyzed using the FACS Canto system (BD Biosciences), with sorting gates drawn to exclude dead (i.e., propidium iodide-positive) cells. For each barcoded cell population, the ratio of APC Mean Fluorescence Intensity (MFI) divided by secondary antibody MFI was calculated for each anti-CD98hc hybridoma supernatant tested and reported in Table 5.

[2] = target: T2, Full length human CD98hc on CHO cells (human); experiment: FACS, hybridoma supernatant
T2 construct: CHO cells stably overexpressing it; also called CHO-human CD98hc; CHO-huCD98hc
T2 chain: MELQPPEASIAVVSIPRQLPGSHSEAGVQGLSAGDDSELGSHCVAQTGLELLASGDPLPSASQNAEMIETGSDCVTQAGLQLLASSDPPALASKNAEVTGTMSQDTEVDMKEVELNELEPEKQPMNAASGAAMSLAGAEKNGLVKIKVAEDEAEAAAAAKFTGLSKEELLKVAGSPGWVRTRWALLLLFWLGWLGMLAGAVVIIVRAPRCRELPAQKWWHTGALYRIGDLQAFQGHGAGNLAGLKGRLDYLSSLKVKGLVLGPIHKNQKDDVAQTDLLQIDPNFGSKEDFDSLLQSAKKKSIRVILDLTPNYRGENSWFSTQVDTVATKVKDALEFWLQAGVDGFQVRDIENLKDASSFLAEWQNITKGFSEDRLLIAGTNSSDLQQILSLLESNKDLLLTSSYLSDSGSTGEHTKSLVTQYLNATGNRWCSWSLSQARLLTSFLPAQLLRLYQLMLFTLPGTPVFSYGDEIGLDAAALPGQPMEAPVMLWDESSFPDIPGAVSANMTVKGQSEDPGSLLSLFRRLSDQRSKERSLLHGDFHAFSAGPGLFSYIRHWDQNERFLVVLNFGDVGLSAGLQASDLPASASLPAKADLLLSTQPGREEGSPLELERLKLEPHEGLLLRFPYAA

[3] = target: T1, Full length mouse CD98hc on CHO cells; experiment: FACS, hybridoma supernatant; remark: listed apart in the source
[4] = target: T3, human CD98hc endogenously expressed on HCMEC/D3 cells (human); experiment: FACS, hybridoma supernatant
T3 construct: human brain endothelial cell line
T3 chain: T2 chain

[5] = target: T4, muCD98hc ECD Avi-His (mouse, UniProt P10852 100-526); experiment: ELISA, hybridoma supernatant
T4 construct: biotinylated on the Avi tag where captured on streptavidin; also called Mouse CD98-AVI-His; Mouse CD98hc-AVI-His
T4 sequence: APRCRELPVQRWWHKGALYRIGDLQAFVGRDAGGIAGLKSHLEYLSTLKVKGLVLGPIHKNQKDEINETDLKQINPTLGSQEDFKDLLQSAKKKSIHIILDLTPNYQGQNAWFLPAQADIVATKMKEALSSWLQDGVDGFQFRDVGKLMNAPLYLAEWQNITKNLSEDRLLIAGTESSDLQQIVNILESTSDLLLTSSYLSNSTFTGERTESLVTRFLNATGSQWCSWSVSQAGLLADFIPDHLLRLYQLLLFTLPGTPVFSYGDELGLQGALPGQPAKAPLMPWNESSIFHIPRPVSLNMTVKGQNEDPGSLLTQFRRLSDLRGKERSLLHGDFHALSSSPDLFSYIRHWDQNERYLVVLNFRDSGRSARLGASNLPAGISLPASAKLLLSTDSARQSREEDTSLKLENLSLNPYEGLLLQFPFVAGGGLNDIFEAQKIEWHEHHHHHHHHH
Experimental: (§1) Briefly, 96-well polystyrene plates were coated with 5 μg/ml of streptavidin (Thermo Fisher, Cat #PI21125) in coating buffer (0.05M carbonate buffer, pH 9.6, Sigma, Cat #C3041) overnight at 4° C. Coated plates were then blocked with ELISA diluent (PBS+0.5% BSA+0.05% Tween20) for one hour. Blocking buffer was removed and human, cyno, or mouse Avi-His-tagged CD98hc and Avi-His-tagged human TfR polypeptides were added at 1 μg/ml in ELISA diluent and captured for 1 hour at room temperature. After washing three times with 300 μl of PBST (PBS+0.05% Tween20, Thermo 28352), the hybridoma cell culture supernatants or 1 μg/ml of commercially available purified mouse anti-human CD98hc monoclonal antibody (Sigma Aldrich, Cat #SAB 4700503) and rat anti-mouse CD98hc antibody (Bio-Rad Laboratories, Hercules, CA, Cat #MCA2684) were added (50 μl/well) to each well. After 30 minutes of incubation at room temperature, the plates were washed three times with 300 μl of PBST. […] After a final set of washes (3×300 μl in PBST), 50 μl/well of BioFx TMB substrate (Surmodics, Eden Praire, MN, Cat #TMBW-1000-01) was added to the wells. The reaction was then quenched after 5-10 mins with 50 μl/well of 2N sulfuric acid. The plates were read for absorbance at 450 nm on a SpectraMax M5 (Molecular Devices, Sunnyvale, CA) using SoftMax Pro software.

[6] = target: T5, Human TfR-AVI-His (control) (human, UniProt P02786 89-760); experiment: ELISA, hybridoma supernatant
T5 construct: control protein; also called Avi-His-tagged human TfR; human transferrin receptor
T5 sequence (P02786 89-760 limits assumed): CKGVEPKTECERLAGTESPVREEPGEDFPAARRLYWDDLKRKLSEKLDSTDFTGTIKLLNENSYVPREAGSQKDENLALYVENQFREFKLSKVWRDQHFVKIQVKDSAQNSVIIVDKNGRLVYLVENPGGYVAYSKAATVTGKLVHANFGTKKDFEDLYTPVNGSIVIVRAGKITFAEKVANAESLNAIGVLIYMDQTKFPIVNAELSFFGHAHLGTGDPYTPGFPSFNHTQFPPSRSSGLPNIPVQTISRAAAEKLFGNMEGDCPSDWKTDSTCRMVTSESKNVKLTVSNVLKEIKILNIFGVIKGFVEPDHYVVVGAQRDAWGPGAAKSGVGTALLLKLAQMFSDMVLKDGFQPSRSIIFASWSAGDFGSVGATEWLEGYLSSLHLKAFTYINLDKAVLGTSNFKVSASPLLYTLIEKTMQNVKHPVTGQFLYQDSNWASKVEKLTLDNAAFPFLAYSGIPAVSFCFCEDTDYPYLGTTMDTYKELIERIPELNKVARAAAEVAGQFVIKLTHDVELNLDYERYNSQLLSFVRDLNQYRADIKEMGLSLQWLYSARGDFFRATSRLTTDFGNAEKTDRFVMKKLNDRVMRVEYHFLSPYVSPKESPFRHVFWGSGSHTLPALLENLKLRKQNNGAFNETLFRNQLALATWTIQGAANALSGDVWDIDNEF
Experimental: as §1

binding result [1]: no binding
MFI ratio over secondary antibody [2]: 52
MFI ratio over secondary antibody [3]: 1.2
MFI ratio over secondary antibody [4]: 218
B1: CD98HC.04.054 (antibody, V domains shown)
VH: QVQLQQSAAELARPGASVKMSCETSGYTFTRYTMNWVKQRPGQGLDWIGYINPSSGYAEYNQKFRGKTTLTADKSSSTAYIQLNSLTSEDSAVYYCVRYDGNYVYWGQGTTLTVSS
VL: DIVMTQSQKFMSTSFGDRVDITCKASQNVGSAVAWYQQKPGQSPKLLIYSASNRYTGVPDRFTGSGSGTDFTLTINNMQSADLADYFCQQYNFYPLTFGAGTKLDLK
notes: hybridoma IgG

binding result [1]: no binding
MFI ratio over secondary antibody [3]: 1.2
OD450 [5]: 0.103
OD450 [6]: 0.0949
B2: CD98HC.04.047 (antibody, V domains shown)
VH: EVQLQESGPSLVKPSQTLSLTCSVTGDSITSGYWNWIRKFPGNKLEYMGYISYSGSTYYNPSLKGRVSITRDTSKNQYYLQLNSVTTEDTATYYCQRHVIYDYTWFAYWGQGTLVTVSA
VL: QIVLTQSPAIMSASPGEKVTISCSASSSVGYMYWLQQKPGSSPKPWIYRTSILASGVPARFSGSGSGTSYSLTISSMEAEDAATYYCQQYQSYPLTFGAGTKLELK
notes: hybridoma IgG

binding result [1]: no binding
MFI ratio over secondary antibody [3]: 1.2
OD450 [5]: 0.0984
OD450 [6]: 0.1
B3: CD98HC.04.065 (antibody, V domains shown)
VH: B2 VH with S56R, G65S
VL: B2 VL with G30H, L35F, A59D
notes: hybridoma IgG
